Laboratory results reported in article PMC8406831, “High-resolution structure of the amino acid transporter AdiC reveals insights into the role of water molecules and networks in oligomerization and substrate binding” (BMC Biology, 2021).
Numbering of substitutions follows the chain as printed. Names may count otherwise.

B1: AdiC-Q88E (natural protein, E. coli)
chain: MSSDADAHKVGLIPVTLMVSGNIMGSGVFLLPANLASTGGIAIYGWLVTIIGALGLSMVYAKMSFLDPSPGGSYAYARRCFGPFLGYETNVLYWLACWIGNIAMVVIGVGYLSYFFPILKDPLVLTITCVVVLWIFVLLNIVGPKMITRVQAVATVLALIPIVGIAVFGWFWFRGETYMAAWNVSGLGTFGAIQSTLNVTLWSFIGVESASVAAGVVKNPKRNVPIATIGGVLIAAVCYVLSTTAIMGMIPNAALRVSASPFGDAARMALGDTAGAIVSFCAAAGCLGSLGGWTLLAGQTAKAAADDGLFPPIFARVNKAGTPVAGLIIVGILMTIFQLSSISPNATKEFGLVSSVSVIFTLVPYLYTCAALLLLGHGHFGKARPAYLAVTTIAFLYCIWAVVGSGAKEVMWSFVTLMVITAMYALNYNRLHKNPYPLDAPISKD
notes: AdiC, L-arginine/agmatine transporter of E. coli (gene from XL1-Blue genomic DNA, vector pZUDF21) with the point mutation Q88E; Residues of the HRV3C site may remain at the C-terminus after cleavage; source: E. coli BL21(DE3) pLysS, purified (Ni-NTA in DDM, on-column HRV3C cleavage); not shown: deca His-tag, C-terminal, cleaved
B2: AdiC-T421V (natural protein, E. coli)
chain: B1 chain with E88Q, T421V
notes: AdiC, L-arginine/agmatine transporter of E. coli (gene from XL1-Blue genomic DNA, vector pZUDF21) with the point mutation T421V; Residues of the HRV3C site may remain at the C-terminus after cleavage; source: E. coli BL21(DE3) pLysS, purified (Ni-NTA in DDM, on-column HRV3C cleavage); not shown: deca His-tag, C-terminal, cleaved
B3: AdiC-Y367F (natural protein, E. coli)
chain: B1 chain with E88Q, Y367F
notes: AdiC, L-arginine/agmatine transporter of E. coli (gene from XL1-Blue genomic DNA, vector pZUDF21) with the point mutation Y367F; Residues of the HRV3C site may remain at the C-terminus after cleavage; source: E. coli BL21(DE3) pLysS, purified (Ni-NTA in DDM, on-column HRV3C cleavage); not shown: deca His-tag, C-terminal, cleaved

Target: the molecule itself
Assay: SEC; Superdex 200 5/150 GL, 20 mM Tris-HCl, pH 8.0, 150 mM NaCl, 0.04% (w/v) DDM; elution volumes of the mutants compared with the wild type

Binding result, binds:
B1
B2
B3
